# Measurements published in patent publication US11548942B2, “Methods of treating a wasting syndrome, increasing growth hormone levels, and increasing GHSR activity with a LEAP2 antibody” (NGM Biopharmaceuticals, Inc., priority 2017, dated 2023).
# T1: endogenous LEAP2 (Mus musculus, UniProt Q91V13)
# T1 construct: The mature form of LEAP2 found in circulation is a 40 amino acid cationic bicyclic peptide; from tissue; host or cells: live fasted mice; circulating endogenous LEAP2
# T1 sequence (Q91V13 37-76): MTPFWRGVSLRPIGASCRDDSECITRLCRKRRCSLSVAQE
# What was measured:
# food intake = assay: Food intake in mice; format: in vivo
# Protocol: Mice were housed in individual cages and food intake was measured at 0.5, 1, and 2 hours.
# Mice were subcutaneously injected with 0.15 μmol/kg or 3 μmol/kg LEAP2.
# [1] = Growth hormone infusion during chronic calorie restriction in LEAP2-expressing mice; format: in vivo; details: growth hormone pumps 0.5 μg/hr s.c.
# Protocol: As described above, two weeks before initiation of calorie restriction, 2-3 month-old male mice were administered AAV-LEAP2 or AAV-GFP by tail vein injection. Diet treatment groups and measurements were the same as above. For growth hormone infusion, Alzet® osmotic mini-pumps filled with recombinant rat growth hormone (GroPep Bioreagents) or vehicle were implanted subcutaneously in the interscapular region. Growth hormone concentration in the pumps was 2 mg/ml and the growth hormone was delivered at a rate of 0.25 μl/hr (0.5 μg/hr).
# FIG. 8A illustrates the experimental design for growth hormone infusion during chronic calorie restriction. The delivery efficiency of growth hormone was confirmed in a separate group of naïve mice kept in ad libitum conditions over 2 weeks. […] Osmotic pumps were implanted 3 days before initiation of calorie restriction. […] In LEAP2-expressing mice implanted with growth hormone pumps, 60% were able to maintain stable levels of blood glucose and survived to the end of the experiment. […] FIG. 8C presents a Kaplan-Meier survival curve of the mice from this experiment.
# endogenous LEAP2 = molecular target: T1, endogenous LEAP2; assay: Growth hormone release after fasting and anti-LEAP2 antibody treatment; format: in vivo, mice; details: 10 mg/kg i.p. after 24 hour fasting
# Protocol: FIG. 10C illustrates the experimental design for evaluating the impact of anti-LEAP2 antibodies on growth hormone release. Following a 24 hour fasting period, a baseline blood sample was taken, and anti-LEAP2 antibodies (10 mg/kg) were administered by intraperitoneal injection. Growth hormone levels were determined at 5, 10, 30, 60, 90, and 120 minutes post-injection.
molecule,measurement,setting,value
CCCCCCCC(=O)OC[C@H](NC(=O)[C@H](CO)NC(=O)CN)C(=O)N[C@@H](Cc1ccccc1)C(=O)N[C@@H](CC(C)C)C(=O)N[C@@H](CO)C(=O)N1CCC[C@H]1C(=O)N[C@@H](CCC(=O)O)C(=O)N[C@@H](Cc1c[nH]cn1)C(=O)N[C@@H](CCC(N)=O)C(=O)N[C@@H](CCCNC(=N)N)C(=O)N[C@H](C(=O)N[C@@H](CCC(N)=O)C(=O)N[C@@H](CCC(N)=O)C(=O)N[C@@H](CCCNC(=N)N)C(=O)N[C@@H](CCCCN)C(=O)N[C@@H](CCC(=O)O)C(=O)N[C@@H](CO)C(=O)N[C@@H](CCCCN)C(=O)N[C@@H](CCCCN)C(=O)N1CCC[C@H]1C(=O)N1CCC[C@H]1C(=O)N[C@@H](C)C(=O)N[C@@H](CCCCN)C(=O)N[C@@H](CC(C)C)C(=O)N[C@@H](CCC(N)=O)C(=O)N1CCC[C@H]1C(=O)N[C@@H](CCCNC(=N)N)C(=O)O)C(C)C [ghrelin],food intake,food intake; ghrelin 0.03 μmol/kg s.c.,only slightly increased
same,food intake,"food intake; ghrelin 0.15 μmol/kg s.c., 1 and 2 hour time points",significantly promote food intake
"growth hormone: recombinant rat growth hormone (GroPep Bioreagents) delivered by Alzet osmotic mini-pumps (protein, UniProt P01244 27-216, looked up) Somatotropin: FPAMPLSSLFANAVLRAQHLHQLAADTYKEFERAYIPEGQRYSIQNAQAAFCFSETIPAPTGKEEAQQRTDMELLRFSLLLIQSWLGPVQFLSRIFTNSLMFGTSDRVYEKLKDLEEGIQALMQELEDGSPRIGQILKQTYDKFDANMRSDDALLKNYGLLSCFKKDLHKAETYLRVMKCRRFAESSCAF",LEAP2-expressing mice able to maintain stable blood glucose and surviving to the end of the experiment,[1],60%
"M18: mouse hybridoma anti-LEAP2 monoclonal antibody, VH SEQ ID NO:9, VL SEQ ID NO:10 (antibody, V domains shown) VH: EIQLQQSGPELMKPGASVKISCKASGYSFTNYYIHWVKQSHGKSLEWIGYIDPFNGGTNYNQKFKGKATLTVDKSSSTAYMHLSSLTFEDSAVYYCARRGYYYGFTYWGQGTLVTVSA VL: DIVLTQSPASLAVSLGQRATISCKASQSVDYDGDSYMNWYQQKPGQPPKLLIYTASNLESGIPARFSGSGSGTDFTLNIHPVEEEDAATYYCQQSNEDPYTFGGGTKLEIK",total amount of growth hormone released (AUC),endogenous LEAP2,increased the total amount of growth hormone released
same,peak of growth hormone secretion,endogenous LEAP2; versus control antibody,increased the peak of growth hormone secretion
